This is an account of results in patent publication CN116178551A (BEIJING DONGFANG BIOTECH CO LTD, dated 2023).

One assay concerns the target T1, huFc-NKG2A/CD94 (UniProt P26715 94-233; Q13241 32-179, limits assumed).
T1 construct: The construct is named only, and its architecture is not described; The Fc is placed N-terminal following the printed name; not shown: human Fc (huFc)
Put plainly: phage supernatant ELISA, huFc-NKG2A/CD94 against huFc-NKG2C/CD94 and huFc-NKG2E/CD94 (selection criterion met by MA-1). For orientation: ELISA stands for enzyme-linked immunosorbent assay.

A further assay addresses T2, huFc-NKG2E/CD94 (UniProt Q07444 94-240; Q13241 32-179, limits assumed).
T2 construct: The construct is named only, and its architecture is not described; not shown: human Fc (huFc)
Put plainly: ELISA, serial dilution of MA-1 on huFc-NKG2E/CD94, anti-mouse Ig-HRP.

For the next assay, the target named is T3, huFc-NKG2C/CD94 (UniProt P26717 94-231; Q13241 32-179, limits assumed).
T3 construct: The construct is named only, and its architecture is not described; not shown: human Fc (huFc)
Put plainly: ELISA, serial dilution of MA-1 on huFc-NKG2C/CD94, anti-mouse Ig-HRP.

T3 sequence (P26717 94-231 limits assumed, chain 1 of 2): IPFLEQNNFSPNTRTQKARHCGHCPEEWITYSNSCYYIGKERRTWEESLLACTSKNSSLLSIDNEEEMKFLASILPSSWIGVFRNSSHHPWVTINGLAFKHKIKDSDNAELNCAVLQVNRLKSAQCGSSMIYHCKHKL
T3 sequence (Q13241 32-179 limits assumed, chain 2 of 2): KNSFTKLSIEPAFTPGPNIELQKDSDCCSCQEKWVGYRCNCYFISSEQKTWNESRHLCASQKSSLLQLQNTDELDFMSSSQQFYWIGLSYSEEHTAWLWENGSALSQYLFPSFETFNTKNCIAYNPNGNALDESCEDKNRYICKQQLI
T1 sequence (P26715 94-233 limits assumed, chain 1 of 2): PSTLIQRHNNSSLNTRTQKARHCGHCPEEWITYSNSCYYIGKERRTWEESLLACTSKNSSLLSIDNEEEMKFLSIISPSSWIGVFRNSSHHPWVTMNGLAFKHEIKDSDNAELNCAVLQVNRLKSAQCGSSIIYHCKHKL
T1 sequence (Q13241 32-179 limits assumed, chain 2 of 2): as the sequence (Q13241 32-179 limits assumed, chain 2 of 2) above
T2 sequence (Q07444 94-240 limits assumed, chain 1 of 2): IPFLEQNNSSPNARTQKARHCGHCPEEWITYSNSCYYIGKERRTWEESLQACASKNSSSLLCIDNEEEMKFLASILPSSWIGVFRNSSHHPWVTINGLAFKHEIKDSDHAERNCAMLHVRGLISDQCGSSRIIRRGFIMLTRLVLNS
T2 sequence (Q13241 32-179 limits assumed, chain 2 of 2): as the sequence (Q13241 32-179 limits assumed, chain 2 of 2) above

B1: 噬菌体单克隆抗体MA-1 (phage-displayed single-chain antibody MA-1) (scFv)
chain: EVKLEESGGGLVKPGGSLKLSCAASGFAFSDYDMSWVRQTPEKRLEWVATISSGGSYTYYPDSVKGRFTISRDNARNTLYLQMSSLRSEDTALYYCTSPRQVGLRKAFDYWGQGTTLTVSSDIVVTQSPALMSASPGEKVTMTCSASSSVSYMYWYQQKPRSSPKSWIYLTSNLASGVPARFSGSGSGTSYSLTISSMEAEDAATYYCQQWSSNPFTFGSGTKLEIKRAD
In the case of B1, the “OD450nm读值 with NKG2A relative to NKG2C/E” value in the assay with huFc-NKG2A/CD94 is over 3 fold.

B2: MA-1鼠源抗体 (murine full antibody MA-1, mouse IgG2a / mouse Ck) (antibody, V domains shown)
VH: EVKLEESGGGLVKPGGSLKLSCAASGFAFSDYDMSWVRQTPEKRLEWVATISSGGSYTYYPDSVKGRFTISRDNARNTLYLQMSSLRSEDTALYYCTSPRQVGLRKAFDYWGQGTTLTVSS
VL: DIVVTQSPALMSASPGEKVTMTCSASSSVSYMYWYQQKPRSSPKSWIYLTSNLASGVPARFSGSGSGTSYSLTISSMEAEDAATYYCQQWSSNPFTFGSGTKLEIKR
notes: also called 抗NKG2A单克隆抗体MA-1; 鼠源全抗分子
B2: the binding result with huFc-NKG2E/CD94 and in the assay with huFc-NKG2C/CD94 was “no binding” in each case.
